{
  "source": "paper PMC8013792",
  "about": "“Bacterial protein domains with a novel Ig‐like fold target human CEACAM receptors” (The EMBO Journal, 2021)",
  "parents": {"B1": {"name": "IgSF (IgI3) domain of β protein, recombinant, biotinylated [modified: biotin, C-terminal] [Streptococcus agalactiae (GBS)] / recombinant CEACAM1 N-terminal domain, unglycosylated, 6xHis tagged [human] (parent complex)", "chain 1": "ANENNQQKIELTVSPENITVYEGEDVKFTVTAKSDSKTTLDFSDLLTKYNPSVSDRISTNYKTNTDNHKIAEITIKNLKLNESQTVTLKAKDDSGNVVEKTFTITVQKKEEKQLPSTGGS", "chain 2": "MAQLTTESMPFNVAEGKEVLLLVHNLPQQLFGYSWYKGERVDGNRQIVGYAIGTQQATPGPANSGRETIYPNASLLIQNVTQNDTGFYTLQVIKSDLVNEEATGQFHVY"}, "B2": {"name": "recombinant CEACAM1 N-terminal domain, unglycosylated, 6xHis tagged [human] / IgSF (IgI3) domain of β protein, recombinant, biotinylated [modified: biotin, C-terminal] [Streptococcus agalactiae (GBS)] (parent complex)", "chain 1": "B1 chain 2", "chain 2": "B1 chain 1"}},
  "data": [
    {"variants_of": "B1", "test": "flow cytometry on coated dynabeads; parent: 800; read off a plot", "units": {"response": "Geometric MFI"}, "values": [
      {"variant": "chain 2 MAQLTTESMPFNVAEGKEVLLLVHNLPQQLFGYSWYKGERVDGNRAIVGYAIGTQQATPGPANSGRETIYPNASLLIQNVTQNDTGFYTLQVIKSDLVNEEATGQFHVY", "note": "[chain 2 Q46A]", "response": "~510"},
      {"variant": "chain 2 MAQLTTESMPFNVAEGKEVLLLVHNLPQQLFGYSWYKGERVDGNRQIVGYAIGTQQATPGPANSGRETIYPNASLLIQNVTQNDTGFYTLQVIKSDLVAEEATGQFHVY", "note": "[chain 2 N99A]", "response": "~540"},
      {"variant": "chain 2 MAQLTTESMPFNVAEGKEVLLLVHNLPQQLFGYSWYKGERVDGNRQIVGYAIGTQQATPGPANSGRETIYPNASLLIQNVTQNDTGFYTLAVIKSDLVNEEATGQFHVY", "note": "[chain 2 Q91A]", "response": "~230"},
      {"variant": "chain 2 MAQLTTESMPFNVAEGKEVLLLVHNLPQQLFGYSWYKGERVDGNRQIVGYAIGTQQATPGPANSGRETIYPNASLLIQNVTQNDTGFYTLQVAKSDLVNEEATGQFHVY", "note": "[chain 2 I93A]", "response": "~240"},
      {"variant": "chain 2 MAQLTTESMPFNVAEGKEVLLLVHNLPQQLAGYSWYKGERVDGNRQIVGYAIGTQQATPGPANSGRETIYPNASLLIQNVTQNDTGFYTLQVIKSDLVNEEATGQFHVY", "note": "[chain 2 F31A]", "response": "~390"},
      {"variant": "chain 2 MAQLTTESMPFNVAEGKEVLLLVHNLPQQLFGYSWYKGERVDGNRQIVGYAIGTQQATPGPANSGRETIYPNASLLIQNVTQNDTGFYTLQVIKSDLANEEATGQFHVY", "note": "[chain 2 V98A]", "response": "~590"},
      {"variant": "chain 2 MAQLTTESMPFNVAEGKEVLLLVHNLPQQLFGYSWYKGERVDGNRQIVGYAIGTQQATPGPANSGRETIYPNASLLIQNVTQNDTGFYTLQVIKSDAVNEEATGQFHVY", "note": "[chain 2 L97A]", "response": "~450"}
    ]},
    {"variants_of": "B2", "test": "flow cytometry on coated dynabeads; parent: 390; read off a plot", "units": {"response": "Geometric MFI"}, "values": [
      {"variant": "chain 2 ANENNQQKIELTVSPENITVYEGEDVKFTVTAKSDSKTTLDFSDLLTKYNPSVSARISTNYKTNTDNHKIAEITIKNLKLNESQTVTLKAKDDSGNVVEKTFTITVQKKEEKQLPSTGGS", "note": "[chain 2 D55A]", "response": "~340"},
      {"variant": "chain 2 ANENNQQKIELTVSPENITVYEGEDVKFTVTAKSDSKTTLDASDLLTKYNPSVSDRISTNYKTNTDNHKIAEITIKNLKLNESQTVTLKAKDDSGNVVEKTFTITVQKKEEKQLPSTGGS", "note": "[chain 2 F42A]", "response": "~750"},
      {"variant": "chain 2 ANENNQQKIELTVSPENITVYEGEDVKFTVTAKSDSKTTLDFSDLLTKYNPSASDRISTNYKTNTDNHKIAEITIKNLKLNESQTVTLKAKDDSGNVVEKTFTITVQKKEEKQLPSTGGS", "note": "[chain 2 V53A]", "response": "~280"},
      {"variant": "chain 2 ANENNQQKIELTVSPENITVYEGEDVKFTVTAKSDSKTTLDFSDLATKYNPSVSDRISTNYKTNTDNHKIAEITIKNLKLNESQTVTLKAKDDSGNVVEKTFTITVQKKEEKQLPSTGGS", "note": "[chain 2 L46A]", "response": "~200"}
    ]}
  ]
}
